The target in experiment [1] is Beta RBD-Fc.
For experiment [2], the target named is Beta RBD-Fc. The source holds these as a separate data set.

Usually Kd stands for the equilibrium constant for the complex coming apart. As usually defined, the koff is a measure of how fast the partners let go of each other. As usually defined, the kon is the second-order rate constant of association.

Where two headings read alike, the source gives them in different places.

B1: 12_F11 (VHH)
VHH: QVQLVESGGGLVQAGGSLRLSCAASGGAFSTSAMGWFRQAPGKEREFVAVIGWRGVRTYYADSVKGRFTIARDNPQNRVYLEMSSLKSDDTGVYFCAASDGNYGLPWAHFEYDFWGQGIQVTSS
In the case of B1, in the experiment with Beta RBD-Fc [1], the Kd worked out at 0.236 nM, the T1/2 worked out at 12 min, the koff was 0.00096 s⁻¹ and the kon was determined as 4.1e+06 M⁻¹ s⁻¹.

B2: NbSA_D10 (VHH)
VHH: QVQLVESGGGLVQVGGSLRLSCAVSGRTSSDYSVGWFRRAQGKEREFVAALAWTVGATHYGDSVKGRFTVSRDNAKNMVYLQIDSLKPEDTGVYYCAGRYGAGLGFTERIYDYWGQGTQVTVSS
For B2, in the experiment with Beta RBD-Fc [2], the T1/2 was determined as 18 min, the koff stood at 0.0006 s⁻¹ and the on-rate constant (kon) worked out at 640000 M⁻¹ s⁻¹. In addition, the Kd in the experiment with Beta RBD worked out at 0.936 nM.

B3: 8_G11 (VHH)
VHH: QVQLVESGGGLVQAGGSLRLSCAASGRTITEYTIGWFRQAPGKEREFVTLISKSTDSTWDADSVKGRFTIARDYAKNTVYLQMNSLKPEDTAVYYCAAGSFYGRDSDAGGYDYWGQGTQVTVSS
In the experiment with Beta RBD-Fc [1], B3 displayed a Kd of 0.443 nM, a T1/2 of 20 min, a koff of 0.00057 s⁻¹ and a kon of 1.3e+06 M⁻¹ s⁻¹.

B4: 3_C5 (VHH)
VHH: QVQLVESGGGLVQAGGSLRLSCAASGRTLSMRRMSWFRQAPGKEREFVATINWSSGSIYVTDSVKDRFTISRDNAENTVHLQMNMLKPEDTAVYSCAVQVDIGGYLDGYDYWGQGTQVTVSS
For B4, in the experiment with Beta RBD-Fc [1], the Kd is 0.895 nM, the T1/2 turned out to be 14 min, the koff was 0.0008 s⁻¹ and the on-rate constant (kon) was 900000 M⁻¹ s⁻¹.

B5: NbSA_A10 (VHH)
VHH: QVQLVESGGGLVQAGDSLRLSCAASGRTFSTTRMAWFRQPPGKEREFVAAIFLNTGTTYYADPVKDRFAISRDNAKNTVYLQMNSLKPEDTAVYYCAAGRFSAAPLTQSTAFESWGQGTQVTVSA
For the molecule B5, the Kd in the experiment with Beta RBD was found to be 0.03 nM.

The values above are taken from patent US20230374116A1.
